Source: US20250230247A1 (DREN BIO, published 2025)

Legend:
[1] = molecular target: T1, human Dectin-1 (biosensor tests of Tables 3, 4A and 9; construct not stated) (human, UniProt Q9BXN2 66-247, limits assumed); assay: Octet
T1 construct: also called hDectin-1
T1 sequence (looked up): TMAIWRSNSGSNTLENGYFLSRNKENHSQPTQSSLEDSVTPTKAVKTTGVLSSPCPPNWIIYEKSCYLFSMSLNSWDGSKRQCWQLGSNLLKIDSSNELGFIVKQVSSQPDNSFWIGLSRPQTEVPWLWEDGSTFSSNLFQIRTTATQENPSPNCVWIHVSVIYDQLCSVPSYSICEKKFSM

[2] = molecular target: T1, human Dectin-1 (biosensor tests of …); assay: Octet response; on X = 340: time not given here; on X = 470: time not given here
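Wherever delta is given: Single-point dissociation rate (koff) fit for each variant binding domain, expressed as change versus the parental clone.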

| Binder | delta [1] | X = 340 [2] | X = 470 [2] | X = 290 [2] | X = 350 [2] |
| --- | --- | --- | --- | --- | --- |
| 2M24A.1.18 (Fab, V domains shown, Fab; also called 2M24.1.18) VH: QVQLVQSGAEVKKPGASVKVSCKSSGYTFTDYYIHWVRQAPGQGLEWMGWINPNSGDTNYAQKFQGRITMTRDTSISTAYLELSRLRSDDTAVFYCARNSGAYSFGYWGQGTLVTVSS VL: DIQMTQSPSSVSASVGDRVTITCRASQGISSWLAWYQQKPGKAPKLLIFGASSLQSGVPSRFSGSGSGTDFTLTVSSLQPEDFATYYCQQAYSFPFTFGPGTKVDIE | 9% | – | – | 0.138 | 0.124 |
| 2M24A.1.17 (Fab, V domains shown, Fab; also called 2M24.1.17) VH: QVQLVQSGAEVKKPGASVKVSCKSSGYTFTDYYIHWVRQAPGQGLEWMGWINPNSGDTNYAQKFQGRITMTRDTSISTAYLELSRLRSDDTAVFYCARNSASYSFGYWGQGTLVTVSS VL: DIQMTQSPSSVSASVGDRVTITCRASQGISSWLAWYQQKPGKAPKLLIFGASSLQSGVPSRFSGSGSGTDFTLTVSSLQPEDFATYYCQQAYSFPFTFGPGTKVDIE | 1% | – | – | 0.131 | 0.129 |
| 2M24A.1.12 hFab (Fab, V domains shown, Fab; also called 2M24.1.12) VH: QVQLVQSGAEVKKPGASVKVSCKSSGYTFTDYYIHWVRQAPGQGLEWMGWINPNSGATNYAQKFQGRITMTRDTSISTAYLELSRLRSDDTAVFYCARNSGSYSFGYWGQGTLVTVSS VL: DIQMTQSPSSVSASVGDRVTITCRASQGISSWLAWYQQKPGKAPKLLIFGASSLQSGVPSRFSGSGSGTDFTLTVSSLQPEDFATYYCQQAYSFPFTFGPGTKVDIE | 19% | 0.49 | 0.399 | – | – |
| 2M24A.1.5 hFab (Fab, V domains shown, Fab; also called 2M24.1.5) VH: QVQLVQSGAEVKKPGASVKVSCKSSGYTFTDYYIHWVRQAPGQGLEWMGWINPNSGDTNYAQKFQGRITMTRDTSISTAYLELSRLRSDDTAVFYCARNSGSYSFGYWGQGTLVTVSS VL: DIQMTQSPSSVSASVGDRVTITCRASQGISSWLAWYQQKPGKAPKLLIFGASSLQSGVPSRFSGSGSGTDFTLTVSSLQPEDFATYYCQQAASFPFTFGPGTKVDIE | 95% | 0.3 | 0.014 | – | – |
| 2M24A.1.2 hFab (Fab, V domains shown, Fab; also called 2M24.1.2) VH: QVQLVQSGAEVKKPGASVKVSCKSSGYTFTDYYIHWVRQAPGQGLEWMGWINPNSGATNYAQKFQGRITMTRDTSISTAYLELSRLRSDDTAVFYCARNSGSYSFGYWGQGTLVTVSS VL: DIQMTQSPSSVSASVGDRVTITCRASQGISSWLAWYQQKPGKAPKLLIFGASSLQSGVPSRFSGSGSGTDFTLTVSSLQPEDFATYYCQQAASFPFTFGPGTKVDIE | 98% | 0.331 | 0.006 | – | – |
| 2M24A.1.11 hFab (Fab, V domains shown, Fab; also called 2M24.1.11) VH: QVQLVQSGAEVKKPGASVKVSCKSSGYTFTAYYIHWVRQAPGQGLEWMGWINPNSGDTNYAQKFQGRITMTRDTSISTAYLELSRLRSDDTAVFYCARNSGSYSFGYWGQGTLVTVSS VL: DIQMTQSPSSVSASVGDRVTITCRASQGISSWLAWYQQKPGKAPKLLIFGASSLQSGVPSRFSGSGSGTDFTLTVSSLQPEDFATYYCQQAYSFPFTFGPGTKVDIE | 16% | 0.499 | 0.418 | – | – |
| 2M24A.1.8 hFab (Fab, V domains shown, Fab; also called 2M24.1.8) VH: QVQLVQSGAEVKKPGASVKVSCKSSGYTFTDYYIHWVRQAPGQGLEWMGWINPNSGDTNYAQKFQGRITMTRDTSISTAYLELSRLRSDDTAVFYCARASGSYSFGYWGQGTLVTVSS VL: DIQMTQSPSSVSASVGDRVTITCRASQGISSWLAWYQQKPGKAPKLLIFGASSLQSGVPSRFSGSGSGTDFTLTVSSLQPEDFATYYCQQAFSFPFTFGPGTKVDIE | 100% | 0.042 | 0 | – | – |
| 2M24A.1.3 hFab (Fab, V domains shown, Fab; also called 2M24.1.3) VH: QVQLVQSGAEVKKPGASVKVSCKSSGYTFTDYYIHWVRQAPGQGLEWMGWINPNSGDTNYAQKFQGRITMTRDTSISTAYLELSRLRSDDTAVFYCARASGSYSFGYWGQGTLVTVSS VL: DIQMTQSPSSVSASVGDRVTITCRASQGISSWLAWYQQKPGKAPKLLIFGASSLQSGVPSRFSGSGSGTDFTLTVSSLQPEDFATYYCQQAASFPFTFGPGTKVDIE | – | 0 | 0 | – | – |
| 2M24A.1.21 (Fab, V domains shown, Fab; also called 2M24.1.21) VH: QVQLVQSGAEVKKPGASVKVSCKSSGYTFTDYYIHWVRQAPGQGLEWMGWINPNSGDTNYAQKFQGRITMTRDTSISTAYLELSRLRSDDTAVFYCARNSGSYSFAYWGQGTLVTVSS VL: DIQMTQSPSSVSASVGDRVTITCRASQGISSWLAWYQQKPGKAPKLLIFGASSLQSGVPSRFSGSGSGTDFTLTVSSLQPEDFATYYCQQAYSFPFTFGPGTKVDIE | 8% | – | – | 0.125 | 0.114 |
| 2M24A.1.6 hFab (Fab, V domains shown, Fab; also called 2M24.1.6) VH: QVQLVQSGAEVKKPGASVKVSCKSSGYTFTAYYIHWVRQAPGQGLEWMGWINPNSGDTNYAQKFQGRITMTRDTSISTAYLELSRLRSDDTAVFYCARNSGSYSFGYWGQGTLVTVSS VL: DIQMTQSPSSVSASVGDRVTITCRASQGISSWLAWYQQKPGKAPKLLIFGASSLQSGVPSRFSGSGSGTDFTLTVSSLQPEDFATYYCQQAFSFPFTFGPGTKVDIE | 21% | 0.493 | 0.39 | – | – |
| 2M24A.1.22 (Fab, V domains shown, Fab; also called 2M24.1.22) VH: QVQLVQSGAEVKKPGASVKVSCKSSGYTFTDYYIHWVRQAPGQGLEWMGWINPNSGDTNYAQKFQGRITMTRDTSISTAYLELSRLRSDDTAVFYCARNSGSYSFGAWGQGTLVTVSS VL: DIQMTQSPSSVSASVGDRVTITCRASQGISSWLAWYQQKPGKAPKLLIFGASSLQSGVPSRFSGSGSGTDFTLTVSSLQPEDFATYYCQQAYSFPFTFGPGTKVDIE | 15% | – | – | 0.131 | 0.112 |

More lines, now with the values ahead:

| delta [1] | X = 340 [2] | X = 470 [2] | X = 290 [2] | X = 350 [2] | Binder |
| --- | --- | --- | --- | --- | --- |
| 98% | 0.305 | 0.006 | – | – | 2M24A.1.1 hFab (Fab, V domains shown, Fab; also called 2M24.1.1) VH: QVQLVQSGAEVKKPGASVKVSCKSSGYTFTAYYIHWVRQAPGQGLEWMGWINPNSGDTNYAQKFQGRITMTRDTSISTAYLELSRLRSDDTAVFYCARNSGSYSFGYWGQGTLVTVSS VL: DIQMTQSPSSVSASVGDRVTITCRASQGISSWLAWYQQKPGKAPKLLIFGASSLQSGVPSRFSGSGSGTDFTLTVSSLQPEDFATYYCQQAASFPFTFGPGTKVDIE |
| – | 0 | 0 | – | – | 2M24A.1.4 hFab (Fab, V domains shown, Fab; also called 2M24.1.4) VH: QVQLVQSGAEVKKPGASVKVSCKSSGYTFTDYYIHWVRQAPGQGLEWMGWINPNSGDTNYAQKFQGRITMTRDTSISTAYLELSRLRSDDTAVFYCARNSGSASFGYWGQGTLVTVSS VL: DIQMTQSPSSVSASVGDRVTITCRASQGISSWLAWYQQKPGKAPKLLIFGASSLQSGVPSRFSGSGSGTDFTLTVSSLQPEDFATYYCQQAASFPFTFGPGTKVDIE |
| 78% | – | – | 0.0981 | 0.0215 | 2M24A.1.20 (Fab, V domains shown, Fab; also called 2M24.1.20) VH: QVQLVQSGAEVKKPGASVKVSCKSSGYTFTDYYIHWVRQAPGQGLEWMGWINPNSGDTNYAQKFQGRITMTRDTSISTAYLELSRLRSDDTAVFYCARNSGSYSAGYWGQGTLVTVSS VL: DIQMTQSPSSVSASVGDRVTITCRASQGISSWLAWYQQKPGKAPKLLIFGASSLQSGVPSRFSGSGSGTDFTLTVSSLQPEDFATYYCQQAYSFPFTFGPGTKVDIE |
| 22% | – | – | 0.126 | 0.0983 | 2M24A.1.19 (Fab, V domains shown, Fab; also called 2M24.1.19) VH: QVQLVQSGAEVKKPGASVKVSCKSSGYTFTDYYIHWVRQAPGQGLEWMGWINPNSGDTNYAQKFQGRITMTRDTSISTAYLELSRLRSDDTAVFYCARNSGSYAFGYWGQGTLVTVSS VL: DIQMTQSPSSVSASVGDRVTITCRASQGISSWLAWYQQKPGKAPKLLIFGASSLQSGVPSRFSGSGSGTDFTLTVSSLQPEDFATYYCQQAYSFPFTFGPGTKVDIE |
| 18% | 0.49 | 0.402 | – | – | 2M24A.1.10 hFab (Fab, V domains shown, Fab; also called 2M24.1.10) VH: QVQLVQSGAEVKKPGASVKVSCKSSGYTFTDYYIHWVRQAPGQGLEWMGWINPNSGDTNYAQKFQGRITMTRDTSISTAYLELSRLRSDDTAVFYCARNSGSYSFGYWGQGTLVTVSS VL: DIQMTQSPSSVSASVGDRVTITCRASQGISSWLAWYQQKPGKAPKLLIFGASSLQSGVPSRFSGSGSGTDFTLTVSSLQPEDFATYYCQQAFSFPFTFGPGTKVDIE |
| 100% | 0.028 | 0 | – | – | 2M24A.1.13 hFab (Fab, V domains shown, Fab; also called 2M24.1.13) VH: QVQLVQSGAEVKKPGASVKVSCKSSGYTFTDYYIHWVRQAPGQGLEWMGWINPNSGDTNYAQKFQGRITMTRDTSISTAYLELSRLRSDDTAVFYCARASGSYSFGYWGQGTLVTVSS VL: DIQMTQSPSSVSASVGDRVTITCRASQGISSWLAWYQQKPGKAPKLLIFGASSLQSGVPSRFSGSGSGTDFTLTVSSLQPEDFATYYCQQAYSFPFTFGPGTKVDIE |
| 5% | – | – | 0.12 | 0.114 | 2M24A.1.16 (Fab, V domains shown, Fab; also called 2M24.1.16) VH: QVQLVQSGAEVKKPGASVKVSCKSSGYTFTDYYIHWVRQAPGQGLEWMGWINPNSGDTNYAQKFQGRITMTRDTSISTAYLELSRLRSDDTAVFYCARNAGSYSFGYWGQGTLVTVSS VL: DIQMTQSPSSVSASVGDRVTITCRASQGISSWLAWYQQKPGKAPKLLIFGASSLQSGVPSRFSGSGSGTDFTLTVSSLQPEDFATYYCQQAYSFPFTFGPGTKVDIE |
| 22% | 0.51 | 0.398 | – | – | 2M24A.1.7 hFab (Fab, V domains shown, Fab; also called 2M24.1.7) VH: QVQLVQSGAEVKKPGASVKVSCKSSGYTFTDYYIHWVRQAPGQGLEWMGWINPNSGATNYAQKFQGRITMTRDTSISTAYLELSRLRSDDTAVFYCARNSGSYSFGYWGQGTLVTVSS VL: DIQMTQSPSSVSASVGDRVTITCRASQGISSWLAWYQQKPGKAPKLLIFGASSLQSGVPSRFSGSGSGTDFTLTVSSLQPEDFATYYCQQAFSFPFTFGPGTKVDIE |
